Target: GST-tagged Rb RxL mut (lacks all 5 RxL sequences in its unstructured regions) (human) (UniProt P06400)
UniProt P06400, sequence (P06400 whole entry): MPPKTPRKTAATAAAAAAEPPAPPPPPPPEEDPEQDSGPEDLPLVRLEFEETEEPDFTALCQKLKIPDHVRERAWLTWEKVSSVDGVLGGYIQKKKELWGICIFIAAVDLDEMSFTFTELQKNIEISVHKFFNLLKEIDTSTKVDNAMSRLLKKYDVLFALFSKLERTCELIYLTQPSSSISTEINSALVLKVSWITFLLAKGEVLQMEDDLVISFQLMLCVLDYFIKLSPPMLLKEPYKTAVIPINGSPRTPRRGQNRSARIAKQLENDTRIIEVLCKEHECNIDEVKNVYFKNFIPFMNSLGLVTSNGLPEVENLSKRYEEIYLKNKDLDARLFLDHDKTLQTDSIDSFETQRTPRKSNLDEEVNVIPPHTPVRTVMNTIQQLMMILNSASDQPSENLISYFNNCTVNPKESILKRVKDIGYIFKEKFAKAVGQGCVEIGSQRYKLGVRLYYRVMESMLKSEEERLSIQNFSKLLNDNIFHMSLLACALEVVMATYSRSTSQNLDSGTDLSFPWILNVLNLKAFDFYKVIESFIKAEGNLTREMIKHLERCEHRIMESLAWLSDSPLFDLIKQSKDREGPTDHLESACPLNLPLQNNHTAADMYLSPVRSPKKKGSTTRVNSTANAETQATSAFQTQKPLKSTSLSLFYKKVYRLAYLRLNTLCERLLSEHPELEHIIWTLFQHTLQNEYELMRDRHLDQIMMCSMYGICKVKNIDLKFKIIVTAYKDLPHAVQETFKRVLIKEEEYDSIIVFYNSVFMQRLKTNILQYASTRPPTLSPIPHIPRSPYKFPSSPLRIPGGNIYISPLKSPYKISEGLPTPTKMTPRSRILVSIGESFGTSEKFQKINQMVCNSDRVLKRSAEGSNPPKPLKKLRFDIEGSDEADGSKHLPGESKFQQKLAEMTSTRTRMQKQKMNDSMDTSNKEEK

Substance | in vitro kinase assay: fold less phosphorylation than wild type Rb [fold]
3X FLAG-tagged cyclin A-Cdk2 fusion complex (enzyme) | 2.9
3X FLAG-tagged cyclin E1-Cdk2 fusion complex (enzyme) | 2

Source: publication PMC6800134
